The text below walks through data of the supplement of paper PMC12764529.

± gives the half width of the 95% confidence interval. Bounds are passed on as bounds.

The nature of data set [1]: folding stability dG unfold from chymotrypsin proteolysis; higher = more stable. In a few lines: (§1)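 Sequencing followed digestion of designed mini-proteins with trypsin and chymotrypsin, each at 11 concentrations in threefold dilutions together with a no-protease condition. The mini-proteins were under 80 residues, had no cysteine, sat in a PA-tagged cDNA display construct, and were kept only if AlphaFold2 dimer inter-PAE was above 15. From the counts, Bayesian fitting gave K50, and unfolding free energy was derived against a sequence-predicted unfolded-state K50 and a shared folded-state K50, per protease or combined.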

Data set [2] can be described thus: folding stability dG unfold (combined trypsin and chymotrypsin); higher = more stable. In a few lines: as §1
Data set [3] in a line: folding stability dG unfold from trypsin proteolysis; higher = more stable. In a few lines: as §1

On to “MSEEERKKAAEERSKPPPVEIKVEVEVVKNEDGEEYLRVRVTVVDPETGEVIEEREFVVRREDLEELLKALS [r1_415_TrROS_Hall]”, for which the figures for the “folding stability dG unfold” value in data set [1], in data set [2] and in data set [3] were 3.57 ± 0.15 kcal/mol, 3.45 ± 0.27 kcal/mol and 3.7 ± 0.16 kcal/mol, respectively.

In the case of “MSEKTFVVEVKVESPEEAEELIEKLKEKLSGEKYEVKIEKVEVSPDGTVKVHITFKPGVPEEFIKKALEEES [r1_485_TrMRF]”, the “folding stability dG unfold” value in data set [1] is 2.97 ± 0.086 kcal/mol; in data set [2], 2.7 ± 0.11 kcal/mol; in data set [3], 2.28 ± 0.13 kcal/mol.

As for “MTPDDMKDPNGMPPEDMWMVEIYVPRRDPEDGGPKWKPVGTIFIPPGMDPEELNEIIEELPGLDLIEIYPMS [r1_132_TrROS]”, the “folding stability dG unfold” value in data set [1] came to 1.42 ± 0.043 kcal/mol; in data set [2], 1.33 ± 0.14 kcal/mol; in data set [3] it was 1.03 ± 0.089 kcal/mol.

With “MVITPEEVAEMLGVSPEELAALPLEELAQRILEVLPAGVATSVTVERDPARGTTTITVTLSDGKNIDVTLES [r1_340_JUSTAS]”, the “folding stability dG unfold” value in data set [1] is 4.61 ± 0.47 kcal/mol; in data set [2] it was greater than 6 kcal/mol; in data set [3], 4.41 ± 0.33 kcal/mol.

As to “NIRITDIEMYPFPNNNQPQMEFTLEWPNGPRRTVEFELPGQEMEVYVDPKKGEIWFYFPNNGMFMKITIEPS [r1_125_TrROS]”, the “folding stability dG unfold” value in data set [1] was 2.97 ± 0.1 kcal/mol; in data set [2], 2.63 ± 0.35 kcal/mol; in data set [3], 1.37 ± 0.068 kcal/mol.

For the sequence “NKAQKLARSLARKFMRPHGYPMEIDPENNSIRFPNGEPIMEIPIDIVLLDDDGKIVEEINIPIRIRMRPPKS [r1_318_TrROS]”, the results for the “folding stability dG unfold” value in data set [1], in data set [2] and in data set [3] were 0.782 ± 0.27 kcal/mol, 0.762 ± 0.23 kcal/mol and 0.695 ± 0.16 kcal/mol, respectively.

On to “PDNEPPQWYRVWIPIDPEDGKIEVKPGGSTMTIDLPDGRPIEFYVPQGMSPSDIKNWAKGIAKELAEELKNS [r1_25_TrROS]”, for which the “folding stability dG unfold” value in data set [1] was determined as 1.58 ± 0.18 kcal/mol; in data set [2], 1.52 ± 0.2 kcal/mol; in data set [3], 1.54 ± 0.076 kcal/mol.

As for “PFDIRINVEYERDPDNGKEYIEVSIMVWDGNPEQARDIAKEILEEHFGWKIKDVKVERFPDMYMITFKIRLS [r1_337_TrROS]”, the “folding stability dG unfold” value is 4.18 ± 0.082 kcal/mol in data set [1], 3.78 ± 0.32 kcal/mol in data set [2] and 3.46 ± 0.12 kcal/mol in data set [3].

Turning to “PKWYEMNITINLPPDDPQKVKELKDALKKRNPDYKVKDIQFNPDDGQITINVWMPPQDQNRFQKAIKELLGS [r1_443_TrROS]”, the “folding stability dG unfold” value turned out to be 2.31 ± 0.025 kcal/mol in data set [1], 2.12 ± 0.084 kcal/mol in data set [2] and 1.86 ± 0.062 kcal/mol in data set [3].

Consider “PMIAPARLPDGSQTVSIFNANGELLVEAVVENDPELIEEAIEKLFEALPNIKPEELHVSVSDPETGESREIS [r1_55_TrMRF]”, for which the “folding stability dG unfold” value came to 0.345 ± 0.17 kcal/mol in data set [1], 0.671 ± 0.19 kcal/mol in data set [2] and 1.05 ± 0.049 kcal/mol in data set [3].

As for “QRVLPFKNPDGDYWVMIMNPNGDPLVEHRIPNDPEQMEKAIHKLMEQLPNFDPEDLRIAVMNPKNGESQEIS [r1_55_TrROS]”, the “folding stability dG unfold” value is 0.868 ± 0.12 kcal/mol in data set [1], 0.61 ± 0.13 kcal/mol in data set [2] and 0.222 ± 0.16 kcal/mol in data set [3].

“SAAEPPPVYLVRITVKVPPGVKPLPPGAVVTYDPATGTLTVYVLMTADEIDALAAAPGVEITDIEVIKLDSA [r9_827_TrROS_Hall]”: the “folding stability dG unfold” value in data set [1] came out at 4.94 ± 0.28 kcal/mol; in data set [2], 4.59 ± 0.24 kcal/mol; in data set [3], 3.16 ± 0.22 kcal/mol.

On to “SAAKITEVDVEVGGDTITTTFRLEIDGKPYLAVTRLEPLTDPDGNPRFIAVTELYDEDGNLVATLPSDLSAG [r14_465_TrMRF]”, for which the “folding stability dG unfold” value in data set [1] was 2.325 ± 0.018 kcal/mol; in data set [2], 2.06 ± 0.059 kcal/mol; in data set [3], 1.59 ± 0.032 kcal/mol.

With “SAANTEEITITVPLTDPETGEERTVTIPVKYVNTNKPYKTPNGSTKTIPVPKSTVIKEAEEEAKKIFESSSA [r9_698_JUSTAS]”, the results for the “folding stability dG unfold” value in data set [1], in data set [2] and in data set [3] were 0.213 ± 0.3 kcal/mol, -0.369 ± 0.56 kcal/mol and -0.381 ± 0.95 kcal/mol, respectively.

With “SAAPDEVVTLEFTVPVVTTFEPGAPYVAPARLTVTFHPPDRVEIRLVSPDGRLVATRTVPPSVLLSEVISAG [r14_559_TrMRF]”, the “folding stability dG unfold” value worked out at 2.03 ± 0.041 kcal/mol in data set [1], 1.88 ± 0.081 kcal/mol in data set [2] and 1.62 ± 0.032 kcal/mol in data set [3].

Take “SAAPVRVEVEYDPERGVLRVRLYIPATSPEEARELVERFFAALGAEARITENPETGTFVVEVDIRLPPASAG [r14_424_TrMRF]”: the figures for the “folding stability dG unfold” value in data set [1], in data set [2] and in data set [3] were 5.15 ± 0.056 kcal/mol, 4.92 ± 0.074 kcal/mol and 4.09 ± 0.09 kcal/mol, respectively.

As to “SAARKIAKKLKEAFPNFPIKDIEITEYEPNPNGRPYMNISIQFPNGGKMEIQFDDPEHPEIREAIREIMSAG [r14_143_TrROS]”, the figures for the “folding stability dG unfold” value in data set [1], in data set [2] and in data set [3] were 1.69 ± 0.086 kcal/mol, 1.49 ± 0.19 kcal/mol and 1.59 ± 0.11 kcal/mol, respectively.

On to “SAATSSTSISIPASTTSLEDVRATLAALGYPPERIVALEVVKVEPGSTKITVTLERPDGTRRTVTVTSASAG [r14_30_JUSTAS]”, for which the “folding stability dG unfold” value in data set [1] was 2.388 ± 0.011 kcal/mol; in data set [2] it was 2.76 ± 0.058 kcal/mol; in data set [3], 3.14 ± 0.054 kcal/mol.
